Several values for one entry are separate records, joined by “and”; a condition that tells them apart may be missing. Equal values may be shown once.
B1: MBL-OX40L (ligand)
chain: not shown
notes: extracellular TNF homology domain (THD) of mouse OX40L (Tnfsf4), 51Ser-198Leu; Seen as dimer, trimer and hexamer on non-reducing gels; also called OX40L-fusion protein (A)
B2: Fc-MBL-OX40L (Fc fusion)
chain: not shown
notes: extracellular TNF homology domain (THD) of mouse OX40L (Tnfsf4), 51Ser-198Leu; Order N to C: Fc, PA, MBL, OX40L; Seen as dimer, hexamer and higher-order multimers on non-reducing gels; also called OX40L-fusion protein (B); not shown: Fc (human IgG1: hinge, CH2, CH3), N-terminal, kept
B3: MBL-scOX40L (ligand)
chain: not shown
notes: extracellular TNF homology domain (THD) of mouse OX40L (Tnfsf4), 51Ser-198Leu; first of three copies; peptide linker; second of three copies; third of three copies; Order N to C: PA, MBL, OX40L, Linker, OX40L, Linker, OX40L, His6; Seen as dimer, trimer and multimers on non-reducing gels; also called OX40L-fusion protein (E); source: Anti PA tag Antibody Beads; not shown: His6, C-terminal, kept

Molecular target: the molecule itself
Assay: non-reducing SDS-PAGE and immunoblot; recombinant OX40L proteins in Laemmli sample buffer, non-heated/non-reducing, SDS-PAGE, immunoblot with anti-PA tag antibody; oligomers judged by molecular weight

Row | Protein | stoichiometry N
1 | B1 | 2 and 3 and 6
2 | B2 | 2 and 6
3 | B3 | 2 and 3

Reference: paper PMC11757143, “Generation and characterization of OX40-ligand fusion protein that agonizes OX40 on T-Lymphocytes” (Frontiers in Immunology, 2024)
